Paper PMC3873856 (Biochemistry, 2013)
“And” between values parts separate entries of the source, which are not always exact repeats. Identical values can stand only once. Bridges are numbered along the chain shown (N, C = ends). Roman numbers before positions name the chains, in order. Where no end group is shown, it is not given here.

Legend:
[1] = biological target: T1, Nrp1 (Nrp1-b1b2) / VEGF-A binding (Homo sapiens, UniProt O14786); assay: Plate-based inhibition of AP-VEGF-A binding to Nrp1; details: comparison of IC50 values, in words
T1 sequence (O14786 274-586): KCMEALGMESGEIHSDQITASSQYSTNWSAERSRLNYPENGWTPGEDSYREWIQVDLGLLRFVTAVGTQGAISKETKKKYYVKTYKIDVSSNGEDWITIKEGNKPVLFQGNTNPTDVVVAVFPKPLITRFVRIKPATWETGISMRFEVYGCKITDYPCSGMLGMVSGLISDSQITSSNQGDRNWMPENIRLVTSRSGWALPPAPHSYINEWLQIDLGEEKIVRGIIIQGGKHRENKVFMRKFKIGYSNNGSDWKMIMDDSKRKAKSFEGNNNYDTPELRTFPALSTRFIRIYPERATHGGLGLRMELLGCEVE

[2] = biological target: T2, Nrp1-b1b2 (residue 274 to 586) (UniProt O14786 274-586); assay: plate-based competition assay with alkaline phosphatase fused ligand
T2 sequence (looked up): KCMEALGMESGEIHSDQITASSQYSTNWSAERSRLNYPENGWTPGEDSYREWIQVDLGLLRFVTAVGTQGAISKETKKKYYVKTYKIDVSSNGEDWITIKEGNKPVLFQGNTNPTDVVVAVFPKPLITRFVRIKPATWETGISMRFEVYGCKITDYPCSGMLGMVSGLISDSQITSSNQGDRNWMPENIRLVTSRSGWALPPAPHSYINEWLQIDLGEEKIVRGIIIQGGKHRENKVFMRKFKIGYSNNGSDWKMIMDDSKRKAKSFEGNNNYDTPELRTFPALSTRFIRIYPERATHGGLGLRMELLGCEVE

In the case of “I: CQGYWRHVPPSPREAPGAPRSPEPDQKKPRNRR-OH / II: CQGYWRHVPPSPREAPGAPRSPEPDQKKPRNRR-OH (disulfide I:1-II:1) [ΔN-C-furSema]”, the “potency relative to C-furSema in inhibiting VEGF-A binding to Nrp1” value [1] is reported as “approximately five-fold less potent”.

B1: Sema3A.2, furin processed variant of the Sema3A C-terminal domain (peptide)
chain: NTMDEFCEQVWKRDRKQRRQRPGHTPGNSNKWKHLQENKKGRNRR
With B1 the IC50 [2] was 45 nM.

B2: ΔN-C-furSema (peptide)
chain: CQGYWRHVPPSPREAPGAPRSPEPDQKKPRNRR
B2 gave an IC50 [2] of 111 nM.

B3: Sema3A.1, shortest furin processed variant of the Sema3A C-terminal domain (peptide)
chain: NTMDEFCEQVWKRDRKQR
B3 showed an IC50 [2] of 1100 nM.

B4: furin-processed C-terminal domain of Sema3F (C-furSema), homodimeric (peptide)
chain: GLIHQYCQGYWRHVPPSPREAPGAPRSPEPDQKKPRNRR
modifications: also: homodimer
B4 was tested, and the IC50 [2] was 25 nM and 24 nM.

B5: C-furSema R779A (peptide)
chain: GLIHQYCQGYWRHVPPSPREAPGAPRSPEPDQKKPRNRA
modifications: also: homodimer, intermolecular disulfide Cys7-Cys7
Molecule B5 has an IC50 [2] of 4500 nM.

B6: monomeric C-furSema^Mon (peptide)
chain: GLIHQYSQGYWRHVPPSPREAPGAPRSPEPDQKKPRNRR
With B6 the IC50 [2] was 1300 nM.

B7: Sema3A.3, furin processed variant of the Sema3A C-terminal domain (peptide)
chain: NTMDEFCEQVWKRDRKQRRQRPGHTPGNSNKWKHLQENKKGRNRRTHEFERAPR
B7 showed an IC50 [2] of 27 nM.
